Experimental data published in patent US20240409617A1 (published 2024).
Substitutions are numbered along the chain they refer to. Read-outs that look alike come from different tables or passages of the source.

B1: Ab 15 (Fc fusion)
VH: QVQLVQSGGGLVKPGRSLRLSCTASGFTFGDYAMSWFRQAPGKGLEWVGFIRSKAYGGTTGYAASVKGRFTISRDDSKSIAYLQMNSLKTEDTAVYYCTTADDDMDVWGKGTTVTVSS
VL: NFMLTQPHSVSESPGKTVTISCTRSSGTIASNYVQWYQQRPGSAPTTVIYEDNQRPSGVPDRFSGSIDRSSNSASLTISGLTPDDEADYYCQSYDTSNHYVFGTGTKVTVL
B2: Ab 25 (Fc fusion)
VH: QVQLVQSGGGLVQPGGSLRLSCAASGFTFSSYWMSWVRQAPGKGLEWVANIKQDGSEKYYVDSVKGRFTISRDNAKNSLYLQMNSLRAEDTAVYYCARGFYYYGAFDIWGQGTTVTVSS
VL: NFMLTQPHSVSESPGKTVTISCTGSSGSIASNYVQWYQQRPGSAPTTVIYEDNQRPSGVPDRFSGSIGSSSNSASLTISGLKTEDEADYYCQSYDSSNHWVFGGGTKLTVL
B3: Ab set2-7 (Fc fusion)
chain 1: QVTLKESGPTRVKPTQTLTLTCTFSGFSLSTTGVGVGWIRQPPGKALEWLALIYWNDDKRYSPSLKSRLTITKDTSKNQVVLTMTNMDPVDTATYYCARISGSGYFYPFDIWGQGTTVTVSS
chain 2: B2 VL with G24R, A44S, G68D, T83A, N98S, H99L
B4: Ab 23 (Fc fusion)
VH: EVQLVQSGAEVKKPGSSVKVSCRSSGGTFSTYGITWVRQAPGQGLEWMGRIIPSLGIPNYAQKFQGRVTITADTSVSTAWMELSSLESDDTAIYYCARENIDLATNDFWGQGTLVTVSS
VL: QSALTQPPSASGSPGQSVTISCTGTSRDIGAYGYVSWYQQVPGKAPKLIIYEVRNRPSGVSSRFSGSKSGNTASLTISGLQAEDEADYYCSSYTSSSTLDVVFGGGTKLTVL
B5: Ab 5 (Fc fusion)
VH: QVQLVQSGGGVVQPGRSLRLSCAASGFTFTTYGMHWVRQAPGKGLEWVAVISYDGSIKNYADFVEGRFTISRDNSKNTLYLQMNSLRPEDTGVYYCARVGDSSSYYGIDAWGQGTLVTVSS
VL: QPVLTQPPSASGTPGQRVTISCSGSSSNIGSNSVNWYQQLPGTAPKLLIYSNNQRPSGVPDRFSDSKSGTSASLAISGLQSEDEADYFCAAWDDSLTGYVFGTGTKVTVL
B6: Ab 2-7 (Fc fusion)
chain 1: B3 chain 1
chain 2: B2 VL with G24R, A44S, G68D, T83A, N98S, H99L
B7: Ab 27 (Fc fusion)
VH: QVQLVQSGTEVKKPGASVKVSCKASGYSFTGSHLHWVRQAPGQGLEWMGWINPDSGVINYAQKFQGRVTLTRDTSISTAYMELSGLRSDDTAVYYCARDKAIGYVWALDYWGQGTLVTVSS
VL: QSALTQPPSVSGSPGQSVTISCTGTSSDVGTYNRVSWYQQPPGKAPKLMIYEVSNRPSGVSNRFSGSKSGNTASLTISGLQAEDEADYYCSSYTRTFTYVFGTGTKVTVL
B8: Ab 30 (Fc fusion)
VH: QVQLVQSGGGVVQPGKSLRLSCTASGFTFSDFPIHWVRQAPGKGLEWVGVISYDGNIKYYGDSVKGRFTISRDNAKNSLYLQMNSLRVEDTAVYYCARGGSSFDIWGQGTTVTVSS
VL: SYELTQPPSVSEAPRQRVTISCSGSTSNIGNNAVSWYQHLPGKAPKLLIYYNERLPSGVSDRFSGSKSGTSASLAISGLRSEDEADYYCAAWDDSLSGHVVFGGGTKLTVL

Key:
Assay in all cases: BLI
S1 [1] = target: S1
S1-biotin(ACRO) = target: S1-biotin(ACRO)
S1 [2] = target: S1; remark: listed apart in the source
S1 [3] = target: S1; remark: listed apart in the source
S1 [4] = target: S1; remark: listed apart in the source

Row | Binder | Kd (S1 [1]) [nM] | Kd (S1-biotin(ACRO)) [nM] | Kd (S1 [2]) [pM] | Kd (S1 [3]) [pM] | Kd (S1 [4]) [pM]
1 | B1 | 0.033 | 0.033 |  |  | 
2 | B2 | 10.1 | 10.1 |  |  | 
3 | B3 |  |  | < 1 | < 1 | 
4 | B4 | 0.338 | 0.338 |  |  | 
5 | B5 | < 0.001 |  |  |  | 
6 | B6 | < 0.001 |  |  |  | < 1
7 | B7 | < 0.001 | < 0.001 |  |  | 
8 | B8 | 0.314 |  |  |  | 
